The record followed here is patent US20250352579A1 (HEBEI SENLANG BIOTECHNOLOGY, published 2025).

The labels stand for the following.
B1: VHH07 single VHH CAR (other)
chain: QVQLQESGGGLVQAGGSLRLSCAASGRTFSSYVMKWFRQAPGKGREFVAGISWSGSLTSYSDSVKGRFTISRDNAKNTVYLQMNSLKPEDTAVYYCAAGEAATMSDTDYGMDYWGKGTQVTVSSTTPAPRPPTPAPTIASQPLSLRPEACRPAAGGAVHTRGLDFACDIYIWAPLAGTCGVLLLSLVITLYCKRGRKKLLYIFKQPFMRPVQTTQEEDGCSCRFPEEEEGGCELRVKFSRSADAPAYKQGQNQLYNELNLGRREEYDVLDKRRGRDPEMGGKPRRKNPQEGLYNELQKDKMAEAYSEIGMKGERRRGKGHDGLYQGLSTATKDTYDALHMQALPPR
B2: VHH08 single VHH CAR (other)
chain: QVQLQESGGGLVQPGGSLRLSCAASGSIFSIHAMAWYRQAPGKQRELVASITVGGRTNYVDSVLGRFTISRDNAKNTVYLQMNSLKPEDTAVYYCNSLLWAGLRDSWGPGTQVTVSSTTPAPRPPTPAPTIASQPLSLRPEACRPAAGGAVHTRGLDFACDIYIWAPLAGTCGVLLLSLVITLYCKRGRKKLLYIFKQPFMRPVQTTQEEDGCSCRFPEEEEGGCELRVKFSRSADAPAYKQGQNQLYNELNLGRREEYDVLDKRRGRDPEMGGKPRRKNPQEGLYNELQKDKMAEAYSEIGMKGERRRGKGHDGLYQGLSTATKDTYDALHMQALPPR
B3: VHH20 single VHH CAR (other)
chain: QVQLQESGGGLVQPGGSLRLSCAASGTTLDDYAVGWFRQAPGKEREGVACISASELSTYYADSVKGRFTISRDNAKNTMYLQMNSLKPEDTAVYYCAARVGRIVDVTSTQYQYWGQGTQVTVSSTTPAPRPPTPAPTIASQPLSLRPEACRPAAGGAVHTRGLDFACDIYIWAPLAGTCGVLLLSLVITLYCKRGRKKLLYIFKQPFMRPVQTTQEEDGCSCRFPEEEEGGCELRVKFSRSADAPAYKQGQNQLYNELNLGRREEYDVLDKRRGRDPEMGGKPRRKNPQEGLYNELQKDKMAEAYSEIGMKGERRRGKGHDGLYQGLSTATKDTYDALHMQALPPR
B4: VHH10 single VHH CAR (other)
chain: QVQLQESGGGLVQTGGSLRLSCEASERTFSSNAVGWFRQAPGKEREFVAAITWSVGTTYYADSVKGRFTISRDNAKNTVYLQMNSLKPEDTAVYYCAASGARHYSGSYLDFGSWGQGTQVTVSSTTPAPRPPTPAPTIASQPLSLRPEACRPAAGGAVHTRGLDFACDIYIWAPLAGTCGVLLLSLVITLYCKRGRKKLLYIFKQPFMRPVQTTQEEDGCSCRFPEEEEGGCELRVKFSRSADAPAYKQGQNQLYNELNLGRREEYDVLDKRRGRDPEMGGKPRRKNPQEGLYNELQKDKMAEAYSEIGMKGERRRGKGHDGLYQGLSTATKDTYDALHMQALPPR
B5: VHH12 single VHH CAR (other)
chain: QVQLQESGGGLVQPGGSLRLSCAASGSTLDYYAIGWFRQAPGKEREGISCISNSGGMTNYADSVKGRFTISRDNAKNTVYLQMNSLKPEDTAVYYCAAGPAWSYCSGYVPAGLDKFGSWGQGTQVTVSSTTPAPRPPTPAPTIASQPLSLRPEACRPAAGGAVHTRGLDFACDIYIWAPLAGTCGVLLLSLVITLYCKRGRKKLLYIFKQPFMRPVQTTQEEDGCSCRFPEEEEGGCELRVKFSRSADAPAYKQGQNQLYNELNLGRREEYDVLDKRRGRDPEMGGKPRRKNPQEGLYNELQKDKMAEAYSEIGMKGERRRGKGHDGLYQGLSTATKDTYDALHMQALPPR
B6: VHH14 single VHH CAR (other)
chain: QVQLQESGGGLVQPGGSLRLSCTASGLTLGYYAIGWFRQAPGKEREFVSTISASGGMTYYADSVKGRFTISRDNAKNTVYLEMNSLKPEDTAVYYCAAEYLGNLRHFRGDHWGKGTQVTVSSTTPAPRPPTPAPTIASQPLSLRPEACRPAAGGAVHTRGLDFACDIYIWAPLAGTCGVLLLSLVITLYCKRGRKKLLYIFKQPFMRPVQTTQEEDGCSCRFPEEEEGGCELRVKFSRSADAPAYKQGQNQLYNELNLGRREEYDVLDKRRGRDPEMGGKPRRKNPQEGLYNELQKDKMAEAYSEIGMKGERRRGKGHDGLYQGLSTATKDTYDALHMQALPPR
B7: VHH19 single VHH CAR (other)
chain: QVQLQESGGGLVQPGGSLRLSCTASGRAFSMYVMGWFRQAPGKEREFVSTISASGGMTYYADSVKGRFTISRDNAKNTVYLEMNSLKPEDTAVYYCAAEYLGNLRHFRGDHWGKGTQVTVSSTTPAPRPPTPAPTIASQPLSLRPEACRPAAGGAVHTRGLDFACDIYIWAPLAGTCGVLLLSLVITLYCKRGRKKLLYIFKQPFMRPVQTTQEEDGCSCRFPEEEEGGCELRVKFSRSADAPAYKQGQNQLYNELNLGRREEYDVLDKRRGRDPEMGGKPRRKNPQEGLYNELQKDKMAEAYSEIGMKGERRRGKGHDGLYQGLSTATKDTYDALHMQALPPR
B8: VHH06 single VHH CAR (other)
chain: QVQLQESGGGLVQAGGSLRLSCAASGRTFSSYNMGWFRQAPGAEREFVAAISRGGGSTYYADSVKGRFTISRDNAKNTVYLQMNSLRPEDTAVYYCADSGARAYSGSYLDFGSWGQGTQVTVSSTTPAPRPPTPAPTIASQPLSLRPEACRPAAGGAVHTRGLDFACDIYIWAPLAGTCGVLLLSLVITLYCKRGRKKLLYIFKQPFMRPVQTTQEEDGCSCRFPEEEEGGCELRVKFSRSADAPAYKQGQNQLYNELNLGRREEYDVLDKRRGRDPEMGGKPRRKNPQEGLYNELQKDKMAEAYSEIGMKGERRRGKGHDGLYQGLSTATKDTYDALHMQALPPR
B9: dVHH-D (other)
chain (part 1 of 2): QVQLQESGGGLVQTGGSLRLSCEASERTFSSNAVGWFRQAPGKEREFVAAITWSVGTTYYADSVKGRFTISRDNAKNTVYLQMNSLKPEDTAVYYCAASGARHYSGSYLDFGSWGQGTQVTVSS
chain (part 2 of 2): QVQLQESGGGLVQPGGSLRLSCAASGSTLDYYAIGWFRQAPGKEREGISCISNSGGMTNYADSVKGRFTISRDNAKNTVYLQMNSLKPEDTAVYYCAAGPAWSYCSGYVPAGLDKFGSWGQGTQVTVSS
notes: also called VHH-10+VHH-12; double VHH antibody dVHH-D; not shown: Linker
B10: dVHH-E (other)
chain (part 1 of 2): QVQLQESGGGLVQTGGSLRLSCEASERTFSSNAVGWFRQAPGKEREFVAAITWSVGTTYYADSVKGRFTISRDNAKNTVYLQMNSLKPEDTAVYYCAASGARHYSGSYLDFGSWGQGTQVTVSS
chain (part 2 of 2): QVQLQESGGGLVQTGGSLRLSCEASERTFSSNAVGWFRQAPGKEREFVAAITWSVGTTYYADSVKGRFTISRDNAKNTVYLQMNSLKPEDTAVYYCAASGARHYSGSYLDFGSWGQGTQVTVSS
notes: also called VHH-10+VHH-10; double VHH antibody dVHH-E; not shown: Linker
B11: VHH10 (VHH)
VHH: QVQLQESGGGLVQTGGSLRLSCEASERTFSSNAVGWFRQAPGKEREFVAAITWSVGTTYYADSVKGRFTISRDNAKNTVYLQMNSLKPEDTAVYYCAASGARHYSGSYLDFGSWGQGTQVTVSS
notes: Variable region only; also called anti-CD7 nanobody VHH10
B12: VHH12 (VHH)
VHH: QVQLQESGGGLVQPGGSLRLSCAASGSTLDYYAIGWFRQAPGKEREGISCISNSGGMTNYADSVKGRFTISRDNAKNTVYLQMNSLKPEDTAVYYCAAGPAWSYCSGYVPAGLDKFGSWGQGTQVTVSS
notes: Variable region only; also called anti-CD7 nanobody VHH12

For the first test, the target named is T1, CD7 on cells (K562-CD7 positive cells; KG-1a-GFP-Luc; CCRF-CEM) (UniProt P09564 26-240, limits assumed).
T1 sequence (looked up): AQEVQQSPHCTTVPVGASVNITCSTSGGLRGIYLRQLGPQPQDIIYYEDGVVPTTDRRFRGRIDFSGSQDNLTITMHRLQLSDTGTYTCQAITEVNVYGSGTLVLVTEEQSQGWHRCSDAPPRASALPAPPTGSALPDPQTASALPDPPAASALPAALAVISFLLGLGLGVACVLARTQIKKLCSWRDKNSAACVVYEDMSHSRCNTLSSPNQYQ
The test is described as follows: cell-based or functional assay.
B1: the “killing ratio, CAR-T cells on KG-1a-GFP-Luc, E:T=3:1, 4 h, luciferase” value was determined as 61.6%.
Still for that read-out and setting: as for B2, the figure is 68.5%.
Still for that read-out and setting: as for B3, the figure is 9.38%; as for B4, 91.4%; as for B5, 78.2%.
On the same count and under the same terms, for B6 the value was 60.4%; for B7, 61.7%; for B8, 62.2%.

Another test addresses T2, CD7-His protein (UniProt P09564 26-180, limits assumed).
T2 construct: extracellular domain; also called recombinant CD7-His protein; CD7 antigen; not shown: His tag
T2 sequence (looked up): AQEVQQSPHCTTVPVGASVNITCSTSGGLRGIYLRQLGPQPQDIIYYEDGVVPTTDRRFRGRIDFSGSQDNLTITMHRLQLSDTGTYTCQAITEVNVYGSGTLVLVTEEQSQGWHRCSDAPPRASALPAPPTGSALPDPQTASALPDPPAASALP
Put plainly: SPR, CD7-His immobilised on CM5 chip by amino coupling, antibody as analyte. The protocol: In this example, the affinities of the antibodies were measured using the SPR method (surface plasmon resonance method) by immobilizing the CD7-His protein prepared in Example 1 on the CM5 chip through amino coupling method, using the antibodies (dVHH-D, dVHH-E, VHH10, and VHH12) as analytes for the experiments to detect the affinity of each antibody to the CD7 antigen.
A general note: SPR reads the build-up and loss of mass on a sensor chip optically.
One may read the Kd as the constant that tells how readily two partners part at equilibrium. Read a high Kd as weaker binding. The term koff denotes the first-order rate constant of dissociation. Broadly, the kon is the second-order rate constant of association. A low value points to slower complex formation. Take B9: the Kd was found to be 3.35 nM, the koff was 0.000754 s⁻¹ and the kon is 225000 M⁻¹ s⁻¹.
Taken in the same sequence, the figures for B10 were 4.51 nM, 0.000557 s⁻¹ and 123000 M⁻¹ s⁻¹.
Taken in the same sequence, the figures for B11 were 99.9 nM, 0.0164 s⁻¹ and 164000 M⁻¹ s⁻¹.
Take B12: the Kd came to 1.34 nM, the off-rate constant (koff) was 9.95e-05 s⁻¹ and the association rate constant (kon) came out at 74200 M⁻¹ s⁻¹.
